B1: WNb 20 (VHH)
VHH: QVQLQESGGGLVQPGGSLRLSCAASGFTLEHYAIGWFRQAPGKEREGVSCISNSGGRTNYADSVKGRFTISRDNAKNTVYLQMNSLKPEDTAVYYCAADLGVVERLCPAHPGSYEYDYWGQGTQVTVSS
B2: WNb 59 (VHH)
VHH: QVQLQESGGGLVQPGGSLRLSCAASGGTLDYYAIGWFRQAPGKEREGVSCIMSSGGPTYFAGSVKGRFTISRDNAKNTVYLQMNSLKPEDTAVYYCAADPHGFDCSPSGGMDYWGKGTQVTVSS
B3: WNb 70 (VHH)
VHH: QVQLQESGGGLVQPGGSLNISCASNGFTLDFYAIGWFRQAPGKEREGVSCISSSGGSSKYSDSVKGRFTISRDNAKNTVYLQMNSLQPEDTAVYYCAAQMGSSEYCPIFIPGEGMDYWGKGTQVTVSS
B4: WNb 3 (VHH)
VHH: QVQLQESGGGLVQPGGSLRLSCAASGFTLDYYAIGWFRQAPGKEREGVSCISSSGGSTNYADSVKGRFTISRDNAKNTVYLQMNSLKPEDTAVYYCAAQMGSSRYCPIFIPGEGMDYWGKGTQVTVSS
B5: WNb 4 (VHH)
VHH: QVQLQESGGGLVQPGGSLRLSCAASGFTLDYYAIGWFRQAPGKEREGVSCISSSGGSTNYADSVKGRFTISRDNAKNTVYLQMNSLQPEDTAVYYCAAQMGSSRYCPIFTPGEGMDYWGKGTQVTVSS
B6: WNb 61 (VHH)
VHH: QVQLQESGGGLVQPGGSLNISCASNGFTLDFYAIGWFRQAPGKEREGVSCISRSGSNINYAESLKGRATISRDNAKNTIYLQMSNLRTEDTAVYYCAATPSGVATAQGPCDLTRWYDNWGQGTQVTVSS
B7: WNb 30 (VHH)
VHH: QVQLQESGGGLVQPGGSLRLSCVASGITLDYYAIGWFRQAPGKEREGVSCLSSSDGSTYYADSVKGRFTMSRDNVKNTVYLQMNSLKPEDTAVYYCATNPLTVVDGTFHLTCLDEYDYGGQGTQVTVSS
B8: WNb 32 (VHH)
VHH: QVQLQESGGGLVQAGGSLGLSCAASGRPLNSYSMAWFRQAPGKEREFVASIGRSDGLSKYNDFVKDRFTLSRGNAKTTLLLQMNNLKVEDTAVYYCSAALWDGWATDINEYDYRGQGTQVTVSS
B9: WNb 33 (VHH)
VHH: QVQLQESGGGLVQPGGSLRLSCAASGFTFSSYLMGWARQVPGKGLEWVAGIYSDGSTYYADSVKGRFIISRDNAKNTVYLQMNSLKPEDTAVYYCAKDRMEGSTWPERDLGSWGQGTQVTVSS
B10: WNb 52 (VHH)
VHH: QVQLQESGGGLVQPGGSLRLSCAASGFIFSSYAMGWARQVPGKGLEWVSGIYSDGSTYYADSVKGRFTISRDNAKNTVYLQMNSLKPKDTAVYYCAKDRLEGSTWPERDFGSWGQGTQVTVSS
B11: WNb 54 (VHH)
VHH: QVQLQESGGGLVQPGGSLRLSCAASRFTFSSYAMGWARQVPGKGLEWVSGIYSDGSTYYADSVKGRFIISRDNAKNTVYLQMNSLKPEDTAVYYCAKDRMEGSVWPERDFGSWGQGTQVTVSS
B12: WNb 9 (VHH)
VHH: QVQLQESGGGLVQPGGSLRLSCAASGFTFSSYAMGWARQVPGKGLEWVSGIYSDGSTYYGDSVKGRFTISRDNAKNTVYLQMNSLKPEDTAVYYCAKDRMAGSSWPERDFGSWGQGTQVTVSS
B13: WNb 22 (VHH)
VHH: QVQLQESGGGLVQPGGSLRLSCAASGFTFSSYAMGWARQVPGKGLEWLSGIYSDGSTYYADSVKGRFTISRDNAKNTVYLQMNSLKPEDTAVYYCAKDRMDGSVWPERDFGSWGQGTQVTVSS
B14: WNb 6 (VHH)
VHH: QVQLQESGGGLVQPGGSLRLSCAASGFTFSSYAMGWFRQVPGKGLEWVSGIYSDGSTYYADSVKGRFTISRDNAKNTLYLQMNSLKPEDTAVYYCAKDRLEGSSRPERDFGSWGQGTQVTVSS
B15: WNb 11 (VHH)
VHH: QVQLQESGGGLVQAGDSLRLSCAASGGTFSSYLMGWARQVPGKGLEWVAGIYSDGSTYYADSVKGRFIISRDNAKNTVYLQMNSLKPEDTAVYYCAKDRMEGSTWPERDFGSWGQGTQVTVSS
B16: WNb 8 (VHH)
VHH: QVQLQESGGGLVQPGGSLRLSCAASGFTFSSYAMGWARQVPGKGLEWVSGIYSDGSTYYADSVKGRFTISRDNAKNTVYLQMNSLKPEDTAVYYCAKDRLESSSWPERDFGSWGQGTQVTVSS
B17: WNb 68 (VHH)
VHH: QVQLQESGGGLVQPGGSLRLSCAASGFTFSSYLMGWARQVPGKGLEWVAGIYSDGSTHYANSVKGRFTISRDNAKNTVYLQMNSLKPEDTAVYYCAKDRMAGSRWPERDFGFWGQGTQVTVSS
B18: WNb 14 (VHH)
VHH: QVQLQESGGGLVQPGGSLRLSCAASGFTFSSYAMGWARQVPGKGLEWVSGIYSDGSTYYADSVKGRFIISRDNAKNTVYLQMNSLKPEDTAVYYCAKDRMEGSSWPERDFGSWGQGTQVTVSS
B19: WNb 31 (VHH)
VHH: QVQLQESGGGLVQAGDSLRLSCTASGRALNTYTVAWWRQAPGNEREFVASIIWSSGAAWYADAVKGRFTISRDNAKNTVDLQMTSLKPEETAIYFCAVGQWEGRDTWYTSYDYWGQGTQVTVSS
B20: WNb 5 (VHH)
VHH: QVQLQESGGGLVQAGGSLRLSCAASGRTFSRYAIGWFRQAPGKEREGVSCISPSGGSTNYADSVKGRFTISRDNAKNTVYLQMNSLKPEDTAVYYCAASTPSYHYCSGYVSEYDYWGQGTQVTVSS
B21: WNb 69 (VHH)
VHH: QVQLQESGGGLVQPGGSLRLSCAASGFTLDYYGIGWFRQAPGKEREGVSCISASGTSTKYVNSVKGRFTISRDNAKNTVYLQMNSLKPEDTAVYYCAAISGSYYYTSLHPVEYDSWGQGTQVTVSS
B22: WNb 46 (VHH)
VHH: QVQLQESGGGQVQPGGSLRLSCAASGFTLDYYGIGWFRQAPGQEREGVSSISTSGTSTNYANSVKGRFTISRDNAKNTVYLQMNSLKPEDTAVYYCAAISGSYYYTSLHPVEYDYWGQGTQVTVSS
B23: WNb 49 (VHH)
VHH: QVQLQESGGGLVQPGGSLRLSCAASGFTLDYYGIGWFRQAPGKEREGVSGISASGTSTNYADSVKGRFTVSRDNAKNTVYLQMNSLKPEDTAVYYCAAISASYYYTSLHPVEYDSWGQGTQVTVSS

Each binder was assayed against SARS-CoV-2 receptor-binding domain (RBD), wild type (SARS-CoV-2, UniProt P0DTC2, DyLight 488 (NHS ester, about 1.9 dye/protein) in the FRET assay only).

Row | Binder | binding result
1 | B1 | binds
2 | B2 | binds
3 | B3 | binds
4 | B4 | binds
5 | B5 | binds
6 | B6 | binds
7 | B7 | binds
8 | B8 | binds
9 | B9 | binds
10 | B10 | binds
11 | B11 | binds
12 | B12 | binds
13 | B13 | binds
14 | B14 | binds
15 | B15 | binds
16 | B16 | binds
17 | B17 | binds
18 | B18 | binds
19 | B19 | binds
20 | B20 | binds
21 | B21 | binds
22 | B22 | binds
23 | B23 | binds

Reference: publication PMC8126837 (Proceedings of the National Academy of Sciences of the …, 2021)
